# Data as given in US20050002904A1, “Uses of vascular endothelial growth factor and type I collagen inducible protein (VCIP)” (priority 2003, published 2005).
# Where no end group is shown, it is not given here.
# Experiments:
# endothelial cells = experiment: Adhesion of endothelial cells to wells coated with GST fusion proteins; format: cell-based, human; conditions: coating 1, 5, 10 nM; 45 min
# Experimental: FIG. 10A: Affinity purified GST-fusion proteins were resolved on SDS±PAGE and stained with Coomassie Blue. FIG. 10B: Integrins were immobilized onto 96-well plates, and various GST-fusion proteins (ligands) were allowed to bind. Bound ligands were incubated with anti-GST antibodies, appropriate substrate added and the color intensity measured. OD values <0.05 were considered to be background binding. Data are expressed as mean±SD (n=4). FIG. 10C: Dose-dependent binding of αvβ3 integrin with recombinant GST-VCIP-RGD. FIGS. 10D-F: Representative photomicrographs of adhesion and spreading of endothelial cells replated onto dishes coated with either fibronectin (FIG. 9D), vitronectin (FIG. 9E) or GST-VCIP-RGD (FIG. 9F). […] Attached cells were stained, washed and absorbances of eluted dyes measured. […] Attached cells were stained, washed and absorbances of eluted dyes determined. […] Data are expressed as mean±S.D.; diamond, P<0.01; asterisk, P<0.001. […]
# For adhesion blocking assays, endothelial cells were detached, washed with PBS and resuspended in M199 media containing 1 mM CaCl2 and 1 mM MgCl2 in the absence of serum or growth factors. […] Absorbances were measured at 540 nm.
# Next, the capacity of VCIP-RGD to bind endothelial cell integrins was evaluated by determining the effect of GST-VCIP fusion proteins on cell adhesion and spreading.
# αvβ3 and α5β1 integrins = experiment: GST pull-down from [35S]Cys/Met-labelled endothelial cell lysates; format: binding, human; conditions: 10 μg per 3 mg lysate
# αvβ5 integrin = αvβ5 integrin (Homo sapiens, UniProt P06756+P18084); experiment: Solid phase ligand binding assay (ELISA); conditions: immobilized integrin, GST-fusion ligand in solution
# Experimental: (§1) FIG. 10A: Affinity purified GST-fusion proteins were resolved on SDS±PAGE and stained with Coomassie Blue. FIG. 10B: Integrins were immobilized onto 96-well plates, and various GST-fusion proteins (ligands) were allowed to bind. Bound ligands were incubated with anti-GST antibodies, appropriate substrate added and the color intensity measured. OD values <0.05 were considered to be background binding. Data are expressed as mean±SD (n=4). FIG. 10C: Dose-dependent binding of αvβ3 integrin with recombinant GST-VCIP-RGD. FIGS. 10D-F: Representative photomicrographs of adhesion and spreading of endothelial cells replated onto dishes coated with either […]. Cells were allowed to attach for 45 min, washed with PBS and stained with H&E. Magnification, 100×. Bar, 25 μm. FIG. 10G: Adhesion blocking assays. Endothelial cells were replated onto dishes coated with increasing concentrations of affinity purified fusion proteins (1, 5 and 10 nM). Attached cells were stained, washed and absorbances of eluted dyes measured. To determine the effects of anti-integrin antibodies, dishes were coated with 10 nM GST-VCIP-RGD. Endothelial cells were pre-incubated at 4° C. with increasing concentrations of anti-α5β1 (P1D6), anti-αvβ3 (LM609), anti-α2β1 (MAB 1998) and anti-α3β1 (P1B5) monoclonal antibodies (1, 5 and 10 μg/ml) for 30 min, then washed and replated onto coated dishes. Attached cells were stained, washed and absorbances of eluted dyes determined. Three independent experiments were performed with several replicate samples in each experiment. Data are expressed as mean±S.D.; diamond, P<0.01; asterisk, P<0.001. FIG. 10H: Clarified extracts prepared from [^35S]Cys/Met-labeled HdMVEC were pre-adsorbed and incubated with GST-VCIP-RGD in the absence (−) or presence (+) of GRGDSP peptide (lanes 1 and 2). The presence of αvβ3 and α5β1 integrins (lanes 5 and 6) in GST-VCIP pull-down complex (lane 1) was confirmed by incubating aliquots of dissociated complex with the indicated antibodies. Anti-mouse IgG was included as negative control (lane 3).
# (§2) Solid phase ligand binding assays were performed according to a previously published procedure (Orlando and Cheresh, 1991). Briefly, soluble α2β1, α5β1, αvβv3 and αvβ5 integrins (1 μg/ml in a solution containing 20 mM Tris pH 7.4, 150 mM NaCl, 1 mM CaCl2, 1 mM MgCl2 and 1 mM MnCl2) were immobilized onto 96-well microtiter plates at 4° C. Wells were washed and blocked with 0.5% BSA. After washing, GST, GST-VCIP-RGD and GST-VCIP-RGE ligands were added (50-350 ng per well in a solution of TBS pH 7.4) and incubated at 37° C. for 1 h. After washing, the wells were incubated with the anti-GST (sc-138, Santa Cruz) monoclonal antibody for 1 h, followed by washing and incubation with a horseradish peroxidase (HRP)-conjugated mouse secondary antibody. Plates were then washed again and the ABTS substrate (Bio-Rad) was added. All washing steps were carried out using PBS. Absorbances were read at 405 nm, and non-specific binding values were adjusted against BSA.
# (§3) To determine whether GST-VCIP-RGD could interact with various integrins, a solid-phase ligand binding assay was performed.
# α2β1 integrin = α2β1 integrin (Homo sapiens, UniProt P05556+P17301); experiment: Solid phase ligand binding assay (ELISA); conditions: immobilized integrin, GST-fusion ligand in solution
# Experimental: as §1, §2, §3
# αvβ3 integrin = αvβ3 integrin (Homo sapiens, UniProt P05106+P06756); experiment: Solid phase ligand binding assay (ELISA)
# Experimental: as §1, §2, §3
# α5β1 integrin = α5β1 integrin (Homo sapiens, UniProt P05556+P08648); experiment: Solid phase ligand binding assay (ELISA); conditions: immobilized integrin, GST-fusion ligand in solution
# Experimental: as §1, §2, §3
# [1] = system: Fak, Cas, Shc and paxillin; experiment: Tyrosine phosphorylation of focal adhesion proteins in replated HUVECs; format: cell-based, human; conditions: HUVECs replated on coated dishes, 30 and 60 min
# Experimental: Dishes were coated with either fibronectin (Fn, 10 μg/ml), vitronectin (Vn, 10 μg/ml) or affinity purified GST-VCIP-RGD or -RGE fusion proteins (10 and 20 nM). Endothelial cells were detached, washed and maintained in suspension (Sus) for 30 min, then allowed to re-attach for 30 or 60 min. Adherent cells were solubilized in RIPA buffer. Blots shown are representative of those obtained in at least three separate experiments. FIGS. 11A-E: Equal amounts of protein (˜1.0 mg) from clarified extracts were subjected to immunoprecipitation (IP) followed by immunoblotting using the indicated antibodies. FIG. 11F: Equal amounts of protein from total lysates (35 μg/lane) were subjected to immunoblotting with the anti-phospho-Erk½ antibody. FIG. 11G: The same membrane was stripped and re-probed with an anti-Erk½ antibody, showing that equivalent amounts of proteins used across the lanes.
# Serum- and growth factor-starved HUVECs were allowed to attach and spread on dishes coated with optimal concentrations of fibronectin, vitronectin, GST-RGD-VCIP and GST-VCIP-RGE. Cells were harvested after 30 and 60 min at 37° C. Cells were then solubilized, clarified, pre-adsorbed, immunoprecipitated and subjected to immunoblotting with various antibodies as shown in FIG. 11. […] Cells that were replated onto GST-VCIP-RGE appeared rounded.
# Sequence of αvβ3 integrin (P06756 31-889 limits assumed): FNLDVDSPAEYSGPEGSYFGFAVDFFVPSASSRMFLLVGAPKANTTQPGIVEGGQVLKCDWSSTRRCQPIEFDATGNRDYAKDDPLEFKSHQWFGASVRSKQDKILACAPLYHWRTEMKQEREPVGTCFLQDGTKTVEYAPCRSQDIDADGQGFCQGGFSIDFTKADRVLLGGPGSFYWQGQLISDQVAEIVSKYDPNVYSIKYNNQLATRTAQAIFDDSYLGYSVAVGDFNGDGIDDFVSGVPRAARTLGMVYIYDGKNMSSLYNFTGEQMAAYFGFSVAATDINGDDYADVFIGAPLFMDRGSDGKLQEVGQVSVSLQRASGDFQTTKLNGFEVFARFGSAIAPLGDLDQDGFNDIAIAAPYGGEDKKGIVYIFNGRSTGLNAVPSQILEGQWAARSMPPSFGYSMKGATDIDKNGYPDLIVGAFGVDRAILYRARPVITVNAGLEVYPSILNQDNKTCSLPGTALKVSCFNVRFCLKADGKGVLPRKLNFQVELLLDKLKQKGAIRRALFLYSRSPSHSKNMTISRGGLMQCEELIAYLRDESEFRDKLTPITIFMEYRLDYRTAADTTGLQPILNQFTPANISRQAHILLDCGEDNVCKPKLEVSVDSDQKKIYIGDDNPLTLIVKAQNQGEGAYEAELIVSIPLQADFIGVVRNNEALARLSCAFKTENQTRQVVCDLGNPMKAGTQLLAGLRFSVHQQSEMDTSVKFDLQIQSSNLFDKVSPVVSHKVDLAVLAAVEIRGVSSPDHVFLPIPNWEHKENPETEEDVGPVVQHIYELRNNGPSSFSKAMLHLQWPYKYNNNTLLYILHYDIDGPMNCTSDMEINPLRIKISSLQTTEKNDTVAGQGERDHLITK
# Sequence of αvβ3 integrin (P06756 891-1048 limits assumed): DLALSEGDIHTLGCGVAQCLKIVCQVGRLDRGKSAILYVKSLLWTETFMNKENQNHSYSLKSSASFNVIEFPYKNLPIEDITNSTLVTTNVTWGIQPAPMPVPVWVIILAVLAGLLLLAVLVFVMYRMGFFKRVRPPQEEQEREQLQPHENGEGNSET
# Sequence of αvβ3 integrin (P05106 27-788): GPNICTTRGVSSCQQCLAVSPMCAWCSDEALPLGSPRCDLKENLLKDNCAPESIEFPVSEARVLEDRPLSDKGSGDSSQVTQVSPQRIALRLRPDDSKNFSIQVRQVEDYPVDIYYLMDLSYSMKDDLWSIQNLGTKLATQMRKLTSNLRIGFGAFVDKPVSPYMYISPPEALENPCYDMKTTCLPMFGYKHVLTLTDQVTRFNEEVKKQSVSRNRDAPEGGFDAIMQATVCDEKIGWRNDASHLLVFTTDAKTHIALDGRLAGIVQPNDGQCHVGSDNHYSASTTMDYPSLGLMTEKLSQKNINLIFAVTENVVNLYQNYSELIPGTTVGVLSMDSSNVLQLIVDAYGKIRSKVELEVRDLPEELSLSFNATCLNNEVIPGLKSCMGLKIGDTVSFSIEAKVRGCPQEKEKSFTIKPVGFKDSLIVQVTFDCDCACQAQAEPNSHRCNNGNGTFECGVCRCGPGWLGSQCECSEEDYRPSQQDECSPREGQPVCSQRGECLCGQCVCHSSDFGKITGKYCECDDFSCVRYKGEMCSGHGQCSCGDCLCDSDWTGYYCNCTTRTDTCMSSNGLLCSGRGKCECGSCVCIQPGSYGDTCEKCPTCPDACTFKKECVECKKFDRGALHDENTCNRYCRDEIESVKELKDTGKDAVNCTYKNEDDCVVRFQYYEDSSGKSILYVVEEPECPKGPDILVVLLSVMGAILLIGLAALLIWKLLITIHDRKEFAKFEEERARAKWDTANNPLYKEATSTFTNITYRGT
# Sequence of αvβ5 integrin (P06756 31-889 limits assumed): as the sequence (P06756 31-889 limits assumed) above
# Sequence of αvβ5 integrin (P06756 891-1048 limits assumed): as the sequence (P06756 891-1048 limits assumed) above
# Sequence of αvβ5 integrin (P18084 24-799): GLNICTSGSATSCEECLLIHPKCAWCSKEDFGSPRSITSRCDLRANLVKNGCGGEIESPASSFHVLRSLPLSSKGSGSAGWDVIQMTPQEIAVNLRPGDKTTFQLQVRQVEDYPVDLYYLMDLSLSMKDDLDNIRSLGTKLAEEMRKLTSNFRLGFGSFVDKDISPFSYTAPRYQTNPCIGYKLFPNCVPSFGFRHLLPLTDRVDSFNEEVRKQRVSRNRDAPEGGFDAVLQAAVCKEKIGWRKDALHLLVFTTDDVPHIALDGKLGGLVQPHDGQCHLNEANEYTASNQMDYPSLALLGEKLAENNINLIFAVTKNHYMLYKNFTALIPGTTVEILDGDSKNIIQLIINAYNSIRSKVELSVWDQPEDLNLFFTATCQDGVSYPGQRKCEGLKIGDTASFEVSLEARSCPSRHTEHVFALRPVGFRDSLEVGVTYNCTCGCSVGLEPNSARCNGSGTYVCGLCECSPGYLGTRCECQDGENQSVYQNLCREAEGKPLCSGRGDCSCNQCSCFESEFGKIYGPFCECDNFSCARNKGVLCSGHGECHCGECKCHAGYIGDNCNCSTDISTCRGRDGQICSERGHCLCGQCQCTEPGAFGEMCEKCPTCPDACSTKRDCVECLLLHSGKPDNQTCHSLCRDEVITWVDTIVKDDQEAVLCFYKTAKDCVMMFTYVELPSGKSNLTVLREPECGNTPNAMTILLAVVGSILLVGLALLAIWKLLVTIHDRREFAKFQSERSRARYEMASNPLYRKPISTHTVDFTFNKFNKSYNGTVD
# Sequence of α2β1 integrin (P17301 30-1181): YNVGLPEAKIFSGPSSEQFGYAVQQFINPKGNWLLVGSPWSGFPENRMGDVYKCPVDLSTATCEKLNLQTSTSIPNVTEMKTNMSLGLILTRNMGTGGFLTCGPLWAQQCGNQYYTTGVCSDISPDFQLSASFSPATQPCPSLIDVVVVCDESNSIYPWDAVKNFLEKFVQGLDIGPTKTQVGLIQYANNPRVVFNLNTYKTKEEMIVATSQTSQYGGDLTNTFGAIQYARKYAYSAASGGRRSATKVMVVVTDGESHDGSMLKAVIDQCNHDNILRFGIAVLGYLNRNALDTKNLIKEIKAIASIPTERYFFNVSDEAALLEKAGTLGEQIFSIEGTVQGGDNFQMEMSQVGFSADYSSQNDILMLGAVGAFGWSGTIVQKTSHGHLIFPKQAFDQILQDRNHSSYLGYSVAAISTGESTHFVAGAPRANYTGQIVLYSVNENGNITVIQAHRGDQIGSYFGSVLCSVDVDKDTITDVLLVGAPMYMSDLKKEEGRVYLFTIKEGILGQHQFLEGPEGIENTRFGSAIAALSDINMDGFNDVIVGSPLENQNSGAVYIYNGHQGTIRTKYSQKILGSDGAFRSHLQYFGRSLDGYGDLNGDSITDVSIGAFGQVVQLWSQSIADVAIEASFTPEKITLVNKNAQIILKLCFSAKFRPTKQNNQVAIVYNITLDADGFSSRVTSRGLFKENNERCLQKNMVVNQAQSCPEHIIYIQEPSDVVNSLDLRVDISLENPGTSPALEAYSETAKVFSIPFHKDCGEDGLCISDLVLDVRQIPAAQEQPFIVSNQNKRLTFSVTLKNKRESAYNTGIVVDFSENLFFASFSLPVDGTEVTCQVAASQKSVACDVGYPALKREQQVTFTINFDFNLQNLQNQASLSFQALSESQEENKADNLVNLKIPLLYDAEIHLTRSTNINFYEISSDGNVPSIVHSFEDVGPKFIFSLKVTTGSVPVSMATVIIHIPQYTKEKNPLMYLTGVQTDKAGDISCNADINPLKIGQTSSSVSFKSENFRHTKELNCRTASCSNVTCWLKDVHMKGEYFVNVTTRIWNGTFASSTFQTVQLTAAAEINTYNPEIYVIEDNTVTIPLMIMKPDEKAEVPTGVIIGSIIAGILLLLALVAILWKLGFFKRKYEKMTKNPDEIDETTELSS
# Sequence of α2β1 integrin (P05556 21-798): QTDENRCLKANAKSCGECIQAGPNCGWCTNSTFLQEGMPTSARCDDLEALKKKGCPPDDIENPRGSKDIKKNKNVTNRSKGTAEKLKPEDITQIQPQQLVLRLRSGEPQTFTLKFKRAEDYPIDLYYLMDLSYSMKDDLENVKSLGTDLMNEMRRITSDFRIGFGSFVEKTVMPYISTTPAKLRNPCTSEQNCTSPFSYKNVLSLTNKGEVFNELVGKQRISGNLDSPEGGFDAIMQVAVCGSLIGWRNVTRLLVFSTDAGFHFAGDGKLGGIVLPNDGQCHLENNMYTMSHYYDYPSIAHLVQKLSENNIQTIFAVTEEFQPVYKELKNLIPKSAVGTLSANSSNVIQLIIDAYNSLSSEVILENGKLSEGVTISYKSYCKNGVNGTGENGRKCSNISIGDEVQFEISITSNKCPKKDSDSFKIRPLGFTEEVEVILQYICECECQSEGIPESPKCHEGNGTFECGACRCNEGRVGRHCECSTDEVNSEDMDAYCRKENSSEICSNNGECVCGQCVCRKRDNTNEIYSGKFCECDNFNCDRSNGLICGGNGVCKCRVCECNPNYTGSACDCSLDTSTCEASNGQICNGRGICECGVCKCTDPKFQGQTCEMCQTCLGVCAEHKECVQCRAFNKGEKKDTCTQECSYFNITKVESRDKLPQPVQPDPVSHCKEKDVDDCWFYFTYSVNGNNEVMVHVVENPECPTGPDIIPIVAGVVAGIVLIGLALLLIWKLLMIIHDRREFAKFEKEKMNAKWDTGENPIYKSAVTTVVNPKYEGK
substance,measurement,setting,value
"GST-VCIP-RGD: recombinant GST fusion of 49 amino acid residues (145-194) of VCIP second extracellular loop, wild-type RGD (DIAKVSIGRLRPHFLSVCNPDFSQINCSEGYIQNYRCRGDDSKVQEARKS; cysteine pairing not given here; also: GST fusion)",adhesion of endothelial cells to coated wells,endothelial cells,comparable to that observed in wells coated with vitronectin and fibronectin substrates
same,integrins present in pull-down complex,αvβ3 and α5β1 integrins,contained anti-αvβ3 and -α5β1 immunoreactivities
same,interaction with αvβ5 integrin,αvβ5 integrin,did not
same,interaction with α2β1 integrin,α2β1 integrin,did not
same,dose-dependence of binding to αvβ3 integrin,αvβ3 integrin; FIG. 10C,bound to αvβ3 integrin in a dose-dependent manner
same,interaction with αvβ3 integrin,"αvβ3 integrin; immobilized integrin, GST-fusion ligand in solution",interacted
same,interaction with α5β1 integrin,α5β1 integrin,interacted
same,"tyrosine phosphorylation of Fak, Cas, Shc and paxillin",[1],comparable to those induced by fibronectin and vitronectin
same,"tyrosine phosphorylation of Fak, Cas, Shc and paxillin",[1]; listed as VCIP-RGD,"induced tyrosine phosphorylation of Fak, Cas, Shc and paxillin at both 30 and 60 min"
